As usually defined, the LD50 is the dose at which mortality reaches 50%. A lower LD50 goes with a more toxic substance.

Data set [1] concerns hemoglobin. The data set can be described thus: Residual hemoglobin-binding capacity of haptoglobin after heat treatment (60° C., 10 hours). The data set is classed as physicochemical. To be noted: for Residual hemoglobin-binding capacity of haptoglobin after heat treatment: haptoglobin solution of Example 1, 60° C., 10 hours. As to the method:
In this example, the relation between the amount used and the stabilizing effects of various stabilizers was examined by measuring the residual hemoglobin-binding capacity of haptoglobin after heat treatment.
The stabilizers used were glycine and alanine as neutral amino acids, and mannitol and glucose as saccharides. Each of the said stabilizers was dissolved in haptoglobin solution in such proportions as shown in Table 7 and then heated at 60° C. for 10 hours. Thereafter, the hemoglobin-binding capacity of the haptoglobin of the solution was measured, and the ratio thereof to the value before heat treatment represented by percentage.
For comparison, the haptoglobin solution without addition of stabilizer was subjected to the same heat treatment as above, and the hemoglobin-binding capacity of haptoglobin of the solution was measured.

Data set [2] has as its system hemoglobin. The description is as above. To be noted: dialysate of Example 3. The data set is classed as physicochemical.
For data set [3], the system named is arterial blood pressure of the dog. The data set can be described thus: Hypotensive activity (arterial blood pressure of the dog before and after administration). The data set is classed as in vivo. To be noted: less than 10% evaluated as hypotensive activity negative. How it is done: (§1) The acute toxicity was represented by LD50 measured when the aqueous haptoglobin solution was intravenously injected into mice and rats. The hypotensive activity was represented by the ratio of arterial blood pressure of the dog before and after administration of haptoglobin solution. A ratio less than 10% was evaluated as hypotensive activity negative. The measurement of HB-Ag was made by the radioimmunoassay method (Sadatake Kato et al.: Japanese Patent Publication No. 49,919/73) using Ausria-125 kit, products of Abbott Co.

For data set [4], the system named is hemoglobin. Kind of data set: Hemoglobin-binding capacity of haptoglobin (polyacrylamide gel thin layer electrophoresis, benzidine staining). To be noted: maximum addition of hemoglobin with no free hemoglobin observed.
For a further data set, the system named is Mice. The data set can be described thus: Acute toxicity, LD50, intravenous, mice. The data set is classed as in vivo. As to the method:
as §1

The next data set deals with Rats. The data set can be described thus: Acute toxicity, LD50, intravenous, rats. It is filed as in vivo. As to the method: as §1
For the next data set, the system named is HB-Ag. The data set can be described thus: HB-Ag measurement by radioimmunoassay (Ausria-125 kit). More on the design: species or system hepatitis B virus. How it is done: as §1
For data set [5], the system named is rabbits. Kind of data set: Survival of rabbits after haptoglobin and/or hemoglobin administration. The data set is classed as in vivo. To be noted: fourth day, 10 tested. From the text: (§2) Thirty mature rabbits of body weight ranging from 2.3 to 2.9 kg were equally divided into 3 groups (10 rabbits per group), and continuously administered with haptoglobin and/or hemoglobin, and then the survival of the rabbits was observed. At the end of the observation, the survived rabbits were anatomized, and various organs thereof were subjected to histopathological examination.
(§3) A 5% solution of haptoglobin in isotonic sodium chloride solution prepared according to the present invention was continuously administered drop-wise intravenously once a day at a dose of 0.8 g/kg (body weight).
(§4) A 10% solution of hemoglobin in isotonic sodium chloride solution isolated from red blood cells of the rabbit was continuously administered drop-wise intraveneously once a day at a dose of 0.4 g/kg (body weight).
(§5) Hemoglobin and then the haptoglobin of the invention were administered in the same manner and dose in the case of both the first and the second groups.
On the fourth day of administration, the survival of the rabbits of each group was examined.

Data set [6] has as its system rabbits. Kind of data set: Histopathological examination of rabbits after haptoglobin and/or hemoglobin administration. The data set is classed as in vivo.
Source text: as §2, §3, §4, §5

The next data set relates to patient. Kind of data set: Clinical application to a patient (pelvis fracture, urethra rupture and bleeding shock). The data set is classed as in vivo, human. From the text:
An example, in which the haptoglobin prepared in Example 2 was clinically applied to a patient, is illustrated below.
The patient was a person, who had been severely stricken on the left waist with lumber that had fallen down during their work and had been sent to hospital as an emergency case. The diagnosis was pelvis fracture, urethra rupture and bleeding shock. Immediately after hospitalization, the patient was subjected to an operation for urinary tract reconstruction. During the operation, the total amount of bleeding was 7,500 ml, the total amount of blood transfused was 4,200 ml, and the total artificial expander transfused was 4,200 ml. […] The clinical progress of the patient after the operation is shown in the accompanying drawing. […] At this stage, 250 ml of a 5% solution of the haptoglobin prepared according to the present invention in isotonic sodium chloride solution was administered to the patient drop-wise intravenously.

Another data set has as its system mouse or rat and humans. The data set can be described thus: Toxicity / adverse effects on injection of the aqueous solution of haptoglobin. The data set is classed as in vivo, human.
[7] abbreviates: First group: haptoglobin 0.8 g/kg i.v. once a day.
The mark [8] stands for this setting: Third group: hemoglobin 0.4 g/kg then haptoglobin 0.8 g/kg i.v. once a day.
The mark [9] stands for this setting: 250 ml of a 5% solution, drop-wise intravenously.
Where [10] appears, read: Second group: hemoglobin 0.4 g/kg i.v. once a day.

Consider `C[C@H](N)C(=O)O` [Alanine, alanine], for which the entries for the “Residual hemoglobin-binding capacity of haptoglobin after heat treatment” value (from here on “Residual hemoglobin-binding capacity”) in the data set on hemoglobin [1] (stabilizer amount 15%), in the data set on hemoglobin [1] (stabilizer amount 20%) and in the data set on hemoglobin [2] (stabilizer amount 20%) were 50%, 75% and 83%, respectively.
For the molecule `OC[C@H]1OC(O)[C@H](O)[C@@H](O)[C@@H]1O` (some centres unmarked) [Glucose, glucose], the entries for the “Residual hemoglobin-binding capacity” value in the data set with hemoglobin [1] (stabilizer amount 15%), with hemoglobin [1] (stabilizer amount 20%) and in the data set on hemoglobin [2] (stabilizer amount 20%) were 45%, 60% and 72%, respectively.
Turning to `NCC(=O)O` [Glycine, glycine], the “Residual hemoglobin-binding capacity” value was 20% in the data set on hemoglobin [1] (stabilizer amount 2.25%); 35% with hemoglobin [1] (stabilizer amount 5%); 70% with hemoglobin [1] (stabilizer amount 10%); 95% in the data set with hemoglobin [1] (stabilizer amount 15%); 95% in the data set with hemoglobin [1] (stabilizer amount 20%); 92% in the data set on hemoglobin [2] (stabilizer amount 20%).
As to `OC[C@@H](O)[C@@H](O)[C@H](O)[C@H](O)CO` [Mannitol, mannitol], the “Residual hemoglobin-binding capacity” value in the data set with hemoglobin [1] (stabilizer amount 5%) came to 15%; in the data set with hemoglobin [1] (stabilizer amount 7%), 40%; in the data set on hemoglobin [1] (stabilizer amount 10%), 55%; with hemoglobin [1] (stabilizer amount 15%), 80%; in the data set with hemoglobin [1] (stabilizer amount 20%) it was 85%; in the data set with hemoglobin [2] (stabilizer amount 20%), 85%.
With `OC[C@@H](O)[C@@H](O)[C@H](O)[C@@H](O)CO` [Sorbitol, sorbitol], in the data set with hemoglobin [2] (stabilizer amount 20%), the “Residual hemoglobin-binding capacity” value was 76%.
The same measure, in the same setting: the figure for `OC[C@H]1O[C@@](CO)(O[C@H]2O[C@H](CO)[C@@H](O)[C@H](O)[C@H]2O)[C@@H](O)[C@@H]1O` [Sucrose, sucrose] is 68%.
In the case of “Example 1 before treatment: haptoglobin solution of Example 1 before the treatment with the ion exchanger”, the Hypotensive activity in [3] turned out to be 18%.
On the same count and under the same terms, next, “Example 2 before treatment: haptoglobin solution of Example 2 before the treatment with the ion exchanger”: 12.0%.
In the case of “Example 2: sterile aqueous haptoglobin solution from Cohn fraction IV, heated with 20% mannitol, purified on GE Cellulose (guanidoethyl cellulose)”, the Hemoglobin-binding capacity in the data set with hemoglobin [4] is 0.68 mg hemoglobin/mg haptoglobin. The LD50 in the data set on Mice was not below 12000 mg/kg; in the data set with Rats, not below 10000 mg/kg. In data set [3], this molecule came in with a Hypotensive activity of 6.0%. Also, in the data set on HB-Ag, the HB-Ag entry is recorded as “Negative”.
For “Example 3 before treatment: haptoglobin solution of Example 3 before the treatment with the ion exchanger”, the Hypotensive activity in [3] was 24.0%.
For “Experiment 4: haptoglobin solution by the method of Example 1 with CM-cellulose, non-adsorbed fraction, 0.05 M phosphate buffer (pH 7.0)”, the Hemoglobin-binding capacity in the data set on hemoglobin [4] is on record as 0.61 mg hemoglobin/mg haptoglobin. In addition, the 50% lethal dose (LD50) is not below 11700 mg/kg in the data set on Mice and not below 10500 mg/kg in the data set with Rats. Further, the Hypotensive activity in data set [3] came out at 9.8%. Also, the HB-Ag entry with HB-Ag is on record as “Negative”.
For “Experiment 5: haptoglobin solution by the method of Example 1 with CM-Sephadex, non-adsorbed fraction, 0.05 M phosphate buffer (pH 7.0)” the same measures were 0.62 mg hemoglobin/mg haptoglobin, not below 11700 mg/kg, not below 10500 mg/kg, 9.0% and “Negative”.
On to haptoglobin, for which, in the data set on hemoglobin [1] (absence of stabilizer), the “Hemoglobin-binding capacity after heat treatment in the absence of stabilizer” value is reported as “lost its hemoglobin-binding capacity”. Further, the “Activity of haptoglobin after heat treatment” value in the data set on hemoglobin [1] (aqueous solution without stabilizer, 60° C. for 10 hours) is reported as “substantially nil”. In addition, in the data set on hemoglobin [1] (no stabilizer (None)), the “Residual hemoglobin-binding capacity” value is given as “≈ 0%”. The “Haptoglobin activity maintained after heat treatment” value with hemoglobin [1] (with stabilizer, 60° C. and 10 hours) turned out to be 95%. Also, in the data set on rabbits [5] (setting [7]), the Number of dead worked out at 0 and the Number of survival was found to be 10. In the data set on rabbits [5] (setting [8]), this molecule yielded a Number of dead of 1 and a Number of survival of 9. For the same molecule, in the data set with rabbits [6] (First group: haptoglobin for 14 days), the Histopathology result is “no change was observed in its kidney, spleen and lung, and only slight narrowing of sinusoid and deposition of iron were observed in the liver”. Further, the “Prevention of renal troubles caused by hemoglobin; adverse effects (conclusion)” value with rabbits [6] (rabbits, Example 6) was “does not substantially bring about any adverse effects and has the excellent effect of preventing renal troubles caused by hemoglobin”. Also, in the data set with patient (setting [9]), the Amount of urine result was “increase” and the “General symptoms of the patient” value was “gradually improved”. Further, in the data set on patient (250 ml of a 5% solution, drop-wise intravenously, person), the “Time to disappearance of blood pigments from the urine” value is listed as “blood pigments disappeared from the urine within several hours after haptoglobin administration”. Further, the “Adverse effect due to the administration” value with patient (even 6 months after recovery) is “No adverse effect”. In addition, in the data set with mouse or rat and humans (5% solution in isotonic sodium chloride, drop-wise intravenously, human adult), the Adverse effect result is “no adverse effect is observed at all”. Moreover, the Toxicity result in the data set with mouse or rat and humans (injected in large quantities into mouse, rat, humans) is on record as “extremely low”. The “Adverse effects on injection in large quantities” value with mouse or rat and humans (mouse or rat and humans) was “no adverse effects”. Further, the “Residual hemoglobin-binding capacity” value with hemoglobin [2] (no stabilizer (None)) was 0%.
In the data set with rabbits [5] (setting [10]), hemoglobin displayed a Number of dead of 7 and a Number of survival of 3. Further, the Histopathology result with rabbits [6] (Second group: hemoglobin for 6 days) is “marked deposition of iron was observed from proximal tuble to collecting tube of the kidney, thinning of renal epithelial cells was observed, propagation of reticular cells was observed in the spleen, and marked narrowing of sinusoid and deposition of iron were observed in the liver”.

Values taken from patent publication US4137307A, “Process for preparing haptoglobin aqueous solution using strong anion exchanger” (The Green Cross Corporation, priority 1973, dated 1979).
